These results are taken from PMC4174438.

The series deals with RtcA (RNA 3'-phosphate cyclase) (Pyrococcus horikoshii, UniProt O59198 1-341). The series is described as follows: EMSA. On the technique in general: A gel shift assay detects complexes by their altered migration in electrophoresis.
Sequence of RtcA (RNA 3'-phosphate cyclase) (O59198 whole entry): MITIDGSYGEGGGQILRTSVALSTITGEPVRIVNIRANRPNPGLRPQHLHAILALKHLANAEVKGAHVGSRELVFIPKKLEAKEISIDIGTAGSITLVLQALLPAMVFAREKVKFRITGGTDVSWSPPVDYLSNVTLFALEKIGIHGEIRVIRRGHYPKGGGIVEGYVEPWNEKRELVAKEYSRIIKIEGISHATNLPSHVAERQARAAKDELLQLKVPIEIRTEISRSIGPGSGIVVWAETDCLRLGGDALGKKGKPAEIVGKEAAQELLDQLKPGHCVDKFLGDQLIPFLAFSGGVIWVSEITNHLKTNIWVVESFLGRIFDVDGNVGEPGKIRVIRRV

As to CGUUUU (ssRNA, 3'-phosphate) [U6 6-mer RNA 3'-p], the binding result is reported as “binds”.
